{"source": "patent US9057734B2", "about": "“Optogenetic probes for measuring membrane potential” (President and Fellows of Harvard College, priority 2010, dated 2015)", "molecules": {"B1": {"name": "Arch D95N: D95N mutant of Archaerhodopsin 3 without photocurrent, voltage indicator (protein, UniProt P96787 7-258, looked up, variant D95N)", "Archaerhodopsin-3": "QAGYDLLGDGRPETLWLGIGTLLMLIGTFYFLVRGWGVTDKDAREYYAVTILVPGIASAAYLSMFFGIGLTEVTVGGEMLDIYYARYANWLFTTPLLLLDLALLAKVDRVTIGTLVGVDALMIVTGLIGALSHTAIARYSWWLFSTICMIVVLYFLATSLRSAAKERGPEVASTFNTLTALVLVLWTAYPILWIIGTEGAGVVGLGIETLLFMVLDVTAKVGFGFILLRSRAILGDTEAPEPSAGADVSAAD"}}, "key": {"E. coli": {"test_system": "E. coli", "experiment": "Chemical perturbation of fluorescence flashing of E. coli expressing PROPS", "format": "cell-based", "conditions": "20 μg/mL", "source_text": "PROPS was expressed in E. coli, the cells were immobilized on a glass coverslip, and imaged in an inverted epifluorescence microscope while gently flowing minimal medium at pH 7 over the cells. […] The flashes occurred simultaneously (to within the 10 ms imaging resolution) and homogeneously over the extent of a cell. Flashes were uncorrelated between neighboring cells.\nFlashing cells were subjected to chemical perturbations in an effort to deduce the mechanism of the voltage changes. In unstirred medium in a sealed chamber, the flashing ceased over ˜15 minutes; but re-started upon addition of freshly oxygenated medium. Removal of oxygen from the medium using Oxyrase also reversibly eliminated flashing. From these experiments it was concluded that flashing requires aerobic respiration. Under continuous gentle flow of aerated minimal medium, cells flashed continuously for >1 hr. Cells stored in minimal media for several days at 4° C. started flashing when warmed to room temperature.\nFlashing was highly sensitive to pHo, occurring only between pH 7 and 9. Flashing frequencies increased and on-time decreased at lower pH. Flashing was more likely to be periodic at lower pH. Extremes of pH (<6 or >9.5) irreversibly eliminated flashing, causing cells to enter the bright state in an abrupt transition."}, "neurons": {"test_system": "neurons", "experiment": "Light-induced photocurrent and perturbation of membrane potential in neurons", "format": "cell-based, rat", "conditions": "640 nm, 1800 W/cm2", "source_text": "Under illumination conditions typically used for imaging neural activity (I=1800 W/cm2 in total internal reflection (TIR) mode), the light-induced outward photocurrent was typically 10 pA in neurons expressing Arch 3 WT. Under current-clamp conditions this photocurrent shifted the resting potential of the neurons by up to −20 mV. For neurons near their activation threshold, this photocurrent could suppress firing (FIG. 9A), so we explored the non-pumping variant D95N as a voltage indicator in neurons.\nWhole-cell current clamp recordings were obtained from mature neurons under the same conditions used for HEK cells recordings. Series resistance and pipette capacitance were corrected. Only neurons having resting potentials between −50 and −70 mV were used in the analysis."}, "HEK cells": {"test_system": "HEK cells", "experiment": "Photocurrents under 640 nm illumination in voltage-clamped cells", "format": "cell-based, human", "conditions": "illumination at 640 nm", "experimental": "Measurements of photocurrents were performed on HEK cells held in voltage clamp at 0 mV while being exposed to brief (200 ms) pulses of illumination at 640 nm at an intensity of 1800 W/cm^2."}, "[1]": {"experiment": "Spectroscopic characterization of purified Arch WT and D95N", "format": "physicochemical", "experimental": "FIGS. 17A-17C show pH-dependent spectra of Arch 3 WT and D95N. […] At neutral pH, Arch absorbed maximally at 558 nm. Fluorescence emission (dashed line) was recorded on 2 μM protein solubilized in 1% DM, with λexc=532 nm. […] The absorption maximum was at 585 nm. […] Singular Value Decomposition of absorption spectra between 400-750 nm was used to calculate the fraction of the SB in the protonated state as a function of pH. The result was fit to a Hill function to determine the pKa of the SB.\nArch and its D95N mutant were expressed and purified from E. coli, following Bergo, V., et al. (Conformational changes detected in a sensory rhodopsin II-transducer complex. J. Biol. Chem. 278, 36556-36562 (2003)). Briefly, E. coli (strain BL21, pet28b plasmid) was grown in 1 L of LB with 100 μg/mL kanamycin, to an O.D 600 of 0.4 at 37° C. All-trans retinal (5 μM) and inducer (IPTG 0.5 mM) were added and cells were grown for an additional 3.5 hours in the dark. Cells were harvested by centrifugation and resuspended in 50 mM Tris, 2 mM MgCl2 at pH 7.3 and lysed with a tip sonicator for 5 minutes. The lysate was centrifuged and the pellet was resuspended in PBS supplemented with 1.5% dodecyl maltoside (DM). The mixture was homogenized with a glass/teflon Potter Elvehjem homogenizer and centrifuged again. The supernatant was concentrated and washed using a centricon 30k MWCO filter to a final volume of 3 mL.\nThe absorption spectra of purified Arch 3 WT and D95N were determined using an Ocean Optics USB4000 spectrometer with a DT-MINI-2-GS light source. Absorption spectra, for Arch 3 WT and D95N, were measured as a function of pH between pH 6 and 11. To determine the fluorescence emission spectra, proteins in a quartz cuvette were illuminated with the uncollimated beam of a 100 mW, 532 nm laser (Dragon Lasers, 532GLM100) or a 25 mW, 633 nm HeNe laser (Spectra-Physics). Scattered laser light was blocked with a 532 nm Raman notch filter (Omega Optical, XR03) or a 710/100 emission filter (Chroma), and fluorescence was collected perpendicular to the illumination with a 1000 micron fiber, which passed the light to an Ocean Optics QE65000 spectrometer. Spectra were integrated for 2 seconds.\nThe fluorescence quantum yields of Arch 3 WT and D95N were determined by comparing the integrated emission intensity to emission of a sample of the dye ALEXA FLUOR® 647 Conjugate. Briefly, the concentrations of micromolar solutions of dye and protein were determined using a visible absorption spectrum. […] The fluorescence emission spectra of dye and protein samples were measured with 633 nm excitation. The quantum yield was then determined by the formula\nwhere Fl is the integrated fluorescence from 660 to 760 nm, ε is the extinction coefficient at 633 nm and c is the concentration."}, "HEK-293 cells": {"test_system": "HEK-293 cells", "experiment": "Fluorescence versus membrane potential under whole-cell voltage clamp (ramp, step, frequency response, noise)", "format": "cell-based, human", "experimental": "Fluorescence of Arch 3 in HEK 293 cells was readily imaged in an inverted fluorescence microscope with red illumination (λ=640 nm, I=540 W/cm^2), a high numerical aperture objective, a Cy5 filter set, and an EMCCD camera. […] Cells not expressing Arch were not fluorescent.\nHEK-293 cells were grown at 37° C., 5% CO2, in DMEM supplemented with 10% FBS and penicillin-streptomycin. Plasmids were transfected using LIPOFECTAMINE™ and PLUS reagent (Invitrogen) following the manufacturer's instructions, and assayed between 48-72 hours later. The day before recording, cells were re-plated onto glass-bottom dishes (MatTek) at a density of ˜5000 cells/cm^2.\nThe concentration of endogenous retinal in the HEK cells was not known, so the cells were supplemented with retinal by diluting stock retinal solutions (40 mM, DMSO) in growth medium to a final concentration of 5 μM, and then placing the cells back in the incubator for 1-3 hours. All imaging and electrophysiology were performed in Tyrode's buffer (containing, in mM: 125 NaCl, 2 KCl, 3 CaCl2, 1 MgCl2, 10 HEPES, 30 glucose pH 7.3, and adjusted to 305-310 mOsm with sucrose). Only HEK cells having reversal potentials between −10 and −40 mV were included in the analysis.\nSimultaneous fluorescence and whole-cell patch clamp recordings were acquired on a home-built, inverted epifluorescence microscope at room temperature. A diode laser operating at 100 mW, 640 nm (CrystaLaser, DL638-100-O) provided wide-field illumination at an intensity typically between 500-2000 W/cm^2. To minimize background signal from out-of-focus debris, illumination was often performed in through-the-objective total internal reflection fluorescence (TIRF) mode. Fluorescence emission was collected using a 60×, 1.45 NA oil immersion objective (Olympus), and separated from scattered excitation using a 660-760 nm bandpass emission filter (Chroma). For fast imaging of dynamic fluorescence responses and action potentials, images were acquired on an Andor iXon^+ 860 camera operating at up to 2,000 frames/s (using a small region of interest and pixel binning). Slower images with higher spatial resolution were acquired on an Andor iXon^+ 897 EMCCD. Custom software written in LabView (National Instruments) was used to synchronize illumination, collection of images, recording of membrane potential and cell current, and application of electrical stimuli to the cell.\nFilamented glass micropipettes (WPI) were pulled to a tip resistance of 3-10 MΩ, fire polished, and filled with internal solution (containing, in mM: 125 Potassium gluconate, 8 NaCl, 0.6 MgCl2, 0.1 CaCl2, 1 EGTA, 10 HEPES, 4 Mg-ATP, 0.4 Na-GTP, pH 7.3; adjusted to 295 mOsm with sucrose). The micropipettes were positioned with a Burleigh PCS 5000 micromanipulator. Whole-cell, voltage clamp recordings were acquired using an AxoPatch 200B amplifier (Molecular Devices), filtered at 2 kHz with the internal Bessel filter, and digitized with a National Instruments PCIE-6323 acquisition board at 10 kHz. Ambient 60 Hz noise was removed using a HumBug Noise Eliminator (AutoMate Scientific). For experiments requiring rapid modulation of transmembrane potential, series resistance and whole-cell capacitance were predicted to 95% and corrected to ˜50%. Electrical stimuli were generated using the PCIE-6323 acquisition board and sent to the AXOPATCH™, which then applied these signals in either constant current or constant voltage mode.\nTo measure fluorescence as a function of membrane potential, a triangle wave was applied, with amplitude from −150 mV to +150 mV and period 12 s, with video recording at 100 ms per frame. A pixel weight matrix was calculated according to Eq. S2 and applied to the movie images to generate a fluorescence number for each frame. These fluorescence values were divided by their minimum value (at V=−150 mV). The result is plotted as a function of Vin FIGS. 7 and 8. […]"}}, "note": "Entries after “also recorded” stand apart in the source; their conditions may differ.", "data": [{"molecule": "N#CC(C#N)=NNc1cccc(Cl)c1", "note": "[CCCP, Carbonyl cyanide 3-chlorophenylhydrazone]", "values": [{"measurement": "effect on blinking", "setting": "E. coli", "result": "rapidly and irreversibly eliminated the blinking"}]}, {"molecule": "B1", "values": [{"measurement": "effect of illumination on membrane potential", "setting": "neurons", "result": "no effect of illumination on spiking or resting potential; also recorded: did not perturb membrane potential"}, {"measurement": "photocurrent / photoinduced proton pumping", "setting": "HEK cells", "result": "no photocurrent; also recorded: eliminated the photocurrent"}, {"measurement": "photocurrent / photoinduced proton pumping", "setting": "HEK cells; listed as Arch 3 D95N", "result": "lacks photoinduced proton pumping"}, {"measurement": "ε633", "setting": "[1]; calibrated assuming peak extinction coefficient of Bacteriorhodopsin, 63,000 M^−1 cm^−1", "result": "37,500 M^−1cm^−1"}, {"measurement": "QY", "setting": "[1]; comparison to Alexa 647, excitation at 633 nm", "result": "4 × 10^−4"}, {"measurement": "comparison with Arch 3 WT", "setting": "HEK-293 cells", "result": "more sensitive and brighter than Arch 3 WT, but had a slower response"}, {"measurement": "voltage steps resolved/reported", "setting": "HEK-293 cells; HEK cells", "result": 10, "unit": "mV"}, {"measurement": "fast component of step response, time", "setting": "HEK-293 cells; step response", "result": "< 500", "unit": "μs"}, {"measurement": "response time to a step in membrane potential", "setting": "HEK-293 cells; steps between −70 mV and +30 mV", "result": 40, "unit": "ms"}, {"measurement": "increase of fluorescence (fold/factor) between −150 mV and +150 mV", "setting": "HEK-293 cells; whole-cell voltage clamp", "result": 3}]}]}
